Measurements reported in article PMC3601584 (Nature communications, 2013).

Columns and labels:
[1] = target: T1, TPST2ΔC18 (38 kDa core domain of human tyrosylprotein sulfotransferase-2, Gly43–Leu359) (human, UniProt O60704 43-359); experiment: crystal structure
T1 sequence (looked up): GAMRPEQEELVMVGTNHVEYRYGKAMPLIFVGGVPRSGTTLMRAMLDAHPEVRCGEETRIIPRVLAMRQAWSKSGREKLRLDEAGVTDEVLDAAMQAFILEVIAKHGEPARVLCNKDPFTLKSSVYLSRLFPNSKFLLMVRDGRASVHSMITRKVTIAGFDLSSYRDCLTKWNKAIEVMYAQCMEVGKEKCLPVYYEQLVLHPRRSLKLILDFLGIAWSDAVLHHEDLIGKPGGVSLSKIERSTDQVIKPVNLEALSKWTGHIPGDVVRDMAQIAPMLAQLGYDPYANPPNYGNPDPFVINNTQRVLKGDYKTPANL

crystal structure = target: the molecule itself; experiment: crystal structure

EDFEDYEFD [C4P5Y3 peptide (substrate peptide derived from human complement C4)]
binding result [1]: binds

B1: TPST2 (proposed catalytic domain of human tyrosylprotein sulfotransferase-2, Gly43-Ser377) (domain or fragment, UniProt O60704 43-377, looked up)
chain: GAMRPEQEELVMVGTNHVEYRYGKAMPLIFVGGVPRSGTTLMRAMLDAHPEVRCGEETRIIPRVLAMRQAWSKSGREKLRLDEAGVTDEVLDAAMQAFILEVIAKHGEPARVLCNKDPFTLKSSVYLSRLFPNSKFLLMVRDGRASVHSMITRKVTIAGFDLSSYRDCLTKWNKAIEVMYAQCMEVGKEKCLPVYYEQLVLHPRRSLKLILDFLGIAWSDAVLHHEDLIGKPGGVSLSKIERSTDQVIKPVNLEALSKWTGHIPGDVVRDMAQIAPMLAQLGYDPYANPPNYGNPDPFVINNTQRVLKGDYKTPANLKGYFQVNQNSTSSHLGSS
binding result (crystal structure): binds
